# Reference: patent EP2305804B1
# “And” between values parts separate entries of the source, which are not always exact repeats. Equal values may be shown once.
# Biological target: Rabbit GH receptor, full length, stably expressed on murine FDC-P1 cells (GH-R4 cell line) (rabbit) (UniProt P19941)
# Experiment: cell-based or functional assay
# UniProt P19941, sequence (P19941 19-638): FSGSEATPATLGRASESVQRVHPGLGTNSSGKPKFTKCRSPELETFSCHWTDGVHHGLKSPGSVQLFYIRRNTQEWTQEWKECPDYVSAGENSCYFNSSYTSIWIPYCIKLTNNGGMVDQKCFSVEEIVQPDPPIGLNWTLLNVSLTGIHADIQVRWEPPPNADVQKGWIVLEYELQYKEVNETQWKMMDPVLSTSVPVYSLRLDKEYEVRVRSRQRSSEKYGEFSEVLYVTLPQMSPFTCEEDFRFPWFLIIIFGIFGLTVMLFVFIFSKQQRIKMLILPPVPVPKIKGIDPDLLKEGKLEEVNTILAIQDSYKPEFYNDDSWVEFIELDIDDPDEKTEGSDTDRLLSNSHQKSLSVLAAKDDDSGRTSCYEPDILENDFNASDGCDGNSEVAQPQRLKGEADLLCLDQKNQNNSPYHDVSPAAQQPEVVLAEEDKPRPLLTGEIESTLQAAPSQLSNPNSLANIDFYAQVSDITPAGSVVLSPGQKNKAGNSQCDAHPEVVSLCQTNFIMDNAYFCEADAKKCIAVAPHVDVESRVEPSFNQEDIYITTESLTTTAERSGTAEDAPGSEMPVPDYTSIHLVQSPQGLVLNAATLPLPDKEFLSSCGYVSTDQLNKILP
"EC50, individual experiment, MTS cell proliferation assay, GH-R4 cells","Mean EC50, MTS cell proliferation assay, GH-R4 cells","Mean EC50 in molar units, MTS cell proliferation assay, GH-R4 cells",Substance,further results
40 ng/mL and 45 ng/mL,43 ng/mL,2 nM,"PEG-S144C, monoPEGylated hGH cysteine mutein S144C (5 kDa maleimide-PEG) (from UniProt P01241 27-217) (ligand)",–
–,1.6 ng/mL,0.07 nM,"PEG-T3C, monoPEGylated hGH cysteine mutein T3C (5 kDa maleimide-PEG) (from UniProt P01241 27-217) (ligand)",–
0.8 ng/mL and 1.1 ng/mL,0.8 ng/mL,–,"Wild-type recombinant human growth hormone (rhGH), secreted to the E. coli periplasm with the stII signal sequence (from UniProt P01241 27-217) (ligand)",–
–,1.6 ng/mL,–,hGH cysteine mutein S144C (from UniProt P01241 27-217) (ligand),–
–,–,–,"hGH cysteine mutein T3C, disulfide-linked homodimer (from UniProt P01241 27-217) (ligand)","Mean EC50, MTS cell proliferation assay, GH-R4 cells (T3C dimer): 1.4 ng/mL"
–,–,–,hGH cysteine mutein T148C (from UniProt P01241 27-217) (ligand),"EC50, individual experiment, MTS cell proliferation assay, GH-R4 cells (T148C-lotA): 0.4 ng/mL and 0.5 ng/mL; EC50, individual experiment, MTS cell proliferation assay, GH-R4 cells (T148C-lotB): 1.5 ng/mL and 1.9 ng/mL and 3.1 ng/mL; Mean EC50, MTS cell proliferation assay, GH-R4 cells (T148C-lotA): 0.5 ng/mL; Mean EC50, MTS cell proliferation assay, GH-R4 cells (T148C-lotB): 2.5 ng/mL"
